According to patent US20170058005A1 (priority 2014, published 2017):
“Also recorded” adds a separate entry of the source.

Legend:
DRB1*0101 (DR1) = DRB1*0101 (DR1) (Homo sapiens, UniProt P01903+P01911, A100R/D57E/F55L/F60I/F76Y/I96L/L162R/M171V/P40L/Q125E/R42F/V115G/Y59C); format: binding
DRB1*0301 (DR3) = DRB1*0301 (DR3) (Homo sapiens, UniProt P01903+P01911, A100K/A102G/A103R/A169T/F55Y/I96L/K41T/L162R/M171V/P40S/Q125H/Q178H/Q39Y/R42S/S66N/T106N/T262R/W38E/Y61H); format: binding
DRB1*0401 (DR4) = DRB1*0401 (DR4) (Homo sapiens, UniProt P01903+P01911, A100K/A169T/F76Y/I96L/K127E/L162R/M171V/N62H/P40V/Q125Y/R42H/S133A/S149N/S66Y/V115G/V209L/W38E); format: binding
DRB1*0701 (DR7) = DRB1*0701 (DR7) (Homo sapiens, UniProt P01903+P01911, A100R/A102G/A103Q/D57E/D86V/E43K/F76Y/K127E/L162R/M171V/P40G/Q125H/Q99D/R33Q/R42Y/R54Q/S133A/S66F/T210M/V115G/Y107V/Y59L/Y89S); format: binding
DRB1*1101 (DR11) = DRB1*1101 (DR11) (Homo sapiens, UniProt P01903+P01911, A100R/A169T/A87E/I96F/K41T/L162R/M171V/P40S/Q125H/Q178H/Q39Y/Q99D/R42S/S66Y/T262R/V115G/W38E); format: binding
DRB1*1301 (DR13) = DRB1*1301 (DR13) (Homo sapiens, UniProt P01903+P01911, A100E/A169T/K41T/L162R/M171V/P40S/Q125H/Q178H/Q39Y/Q99D/R42S/S66N/T262R/W38E/Y61H); format: binding
DRB1*1501 (DR15) = DRB1*1501 (DR15) (Homo sapiens, UniProt P01903+P01911); format: binding
[1] = test system: CD4^+ T cells of HLA class II transgenic mice; format: cell-based
HLA-DR molecules = format: binding, human

Sequence	Relative binding affinity of peptide to HLA-DR molecules, DR1 (DRB1*0101 (DR1))	Relative binding affinity of peptide to HLA-DR molecules, DR3 (DRB1*0301 (DR3))	Relative binding affinity of peptide to HLA-DR molecules, DR4 (DRB1*0401 (DR4))	Relative binding affinity of peptide to HLA-DR molecules, DR7 (DRB1*0701 (DR7))	Relative binding affinity of peptide to HLA-DR molecules, DR11 (DRB1*1101 (DR11))	Relative binding affinity of peptide to HLA-DR molecules, DR13 (DRB1*1301 (DR13))	Relative binding affinity of peptide to HLA-DR molecules, DR15 (DRB1*1501 (DR15))	HLA-restriction based on CD4 T cell response class II HLA transgenics after priming with LF [1]	Binding across all HLA-DR alleles assayed (HLA-DR molecules)	CD4 T cell response in LF immunized HLA transgenics [1]	Strong relative binding affinity of peptide to HLA-DR molecules, DR3 (DRB1*0301 (DR3))	Strong relative binding affinity of peptide to HLA-DR molecules, DR7 (DRB1*0701 (DR7))	Strong relative binding affinity of peptide to HLA-DR molecules, DR13 (DRB1*1301 (DR13))	Strong relative binding affinity of peptide to HLA-DR molecules, DR15 (DRB1*1501 (DR15))	Strong relative binding affinity of peptide to HLA-DR molecules, DR1 (DRB1*0101 (DR1))	Strong relative binding affinity of peptide to HLA-DR molecules, DR4 (DRB1*0401 (DR4))	Strong relative binding affinity of peptide to HLA-DR molecules, DR11 (DRB1*1101 (DR11))	Binding to HLA-DR1, DR4 and DR15 (HLA-DR molecules)
AKAFAYYIEPQHRDVLQLYA	115	39	51	97	4	9	8	DR1	strong to moderate binding across all seven HLA-DR alleles									
EAQLNINQEWNKALGLPKYT	104	173	43	68	100	17	1	DR15, DQ8	strong to moderate binding across all seven HLA-DR alleles	DQB1*0302 restricted								
EQYTHQDEIYEQVHSKGLYV	1	245	237	0	35	15	13	DRI	strong to moderate binding across all seven HLA-DR alleles	immunodominant epitope in both HLA-DR1 and HLA-DR15 transgenics								
EYIRIDAKVVPKSKIDTKIQ	3	1	15	12	21	24	156	DRI	strong to moderate binding across all seven HLA-DR alleles	elicited a T cell response in a single HLA transgenic strain								
HQSIGSTLYNKIYLYENMNI	115	1	55	3	44	5	0.02	DR1, DR4, DR15,; also recorded: DQ8, DQ6	strong to moderate binding across all seven HLA-DR alleles	recognised by all LF immunized HLA transgenics; also recorded: immunogenic in all three HLA-DR transgenic strains	+ (key: +: Strong binding affinity was defined in this study as a relative activity <10)	+ (key: +: Strong binding affinity was defined in this study as a relative activity <10)	+ (key: +: Strong binding affinity was defined in this study as a relative activity <10)	+ (key: +: Strong binding affinity was defined in this study as a relative activity <10)				
LENGKLILQRNIGLEIKDVQI	0	4	7	1	3	9	0.04	DR1, DR4, DR15		identified in HLA-DR1, HLA-DR4 and HLA-DR15 transgenic lines; also recorded: immunogenic in all three HLA-DR transgenic strains	+ (key: +: Strong binding affinity was defined in this study as a relative activity <10)	+ (key: +: Strong binding affinity was defined in this study as a relative activity <10)	+ (key: +: Strong binding affinity was defined in this study as a relative activity <10)	+ (key: +: Strong binding affinity was defined in this study as a relative activity <10)	+ (key: +: Strong binding affinity was defined in this study as a relative activity <10)	+ (key: +: Strong binding affinity was defined in this study as a relative activity <10)	+ (key: +: Strong binding affinity was defined in this study as a relative activity <10)	strong binders to all three HLA-DR alleles
NKALGLPKYTKLITFNVHNR	0	250	10	4	2	19	3	DR1	strong to moderate binding across all seven HLA-DR alleles									
PESRSILLHGPSKGVELRND	7	354	22	51	120	21	17	DR15	strong to moderate binding across all seven HLA-DR alleles	elicited a T cell response in a single HLA transgenic strain; also recorded: immunodominant epitopes in HLA-DR15 transgenics								
YVYAKEGYEPVLVIQSSEDY	771	>238	555	1182	14	3	>262	DR1, DQ8										
YYEIGKILSRDILSKINQPY	69	3	19	4	0.4	5	43	DQ8										
